First the molecules themselves.
B1: Azoarcus group I ribozyme (parent)
chain: GUGCCUUGCGCCGGGAAACCACGCAAGGGAUGGUGUCAAAUUCGGCGAAACCUAAGCGCCCGCCCGGGCGUAUGGCAACGCCGAGCCAAGCUUCGGCGCCUGCGCCGAUGAAGGUGUAGAGACUAGACGGCACCCACCUAAGGCAAACGCUAUGGUGAAGGCAUAGUCCAGGGAGUGGCGAAAGUCACACAAACCGG

Variants of B1 are the subject of this data set. Briefly: reverse-splicing fitness (ratio to wild type); higher = more active; in vitro selection; Mg2+ level not given. The method in brief: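 An in vitro group I ribozyme library with randomized positions was T7-transcribed and gel-purified. In triplicate, 10 pmol RNA in EPPS pH 7.5 was reacted with 50 pmoles of a 30-nt RNA substrate for 1 h at 37 °C across several added MgCl2 levels (1–48 mM), then stopped with EDTA. Products were reverse transcribed from a substrate-complementary primer, PCR-amplified and sequenced (HiSeq 4000). Fitness is a variant's read proportion after selection over that before, normalised to wild type.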
On to GUGCCUUGCGCCGGGAAACCACGCAAGGGAUGGUGUCAAAUUCGGCGAAACCUAAGCGCCCGCCCGGGCGUAUGGCAACGCAGAGCCAAGCUUCGGCGCCUGCGCCGAUGAAGGUGUAGAGACUAGACGGCACCCACCUAAGGCUAACGCUAUGGUGAAGGCAUAGUCAAGGGAGAGGCGAAAGUCACACAAACCGG [C82A A145U C169A U176A], for which the reverse-splicing fitness stood at 0.00948.
In the case of GUGCCUUGCGCCGGGAAACCACGCAAGGGAUGGUGUCAAAUUCGGCGAAACCUAAGCGCCCGCCCGGGCGUAUGGCAACGCAGAGCCAAGCUUCGGCGCCUGCGCCGAUGAAGGUGUAGAGACUAGACGGCACCCACCUAAGGCUAACGCUAUGGUGAAGGCAUAGUCAAGGGAGCGGCGAAAGUCACACAAACCGG [C82A A145U C169A U176C], the reverse-splicing fitness was found to be 0.00899.
In the case of GUGCCUUGCGCCGGGAAACCACGCAAGGGAUGGUGUCAAAUUCGGCGAAACCUAAGCGCCCGCCCGGGCGUAUGGCAACGCAGAGCCAAGCUUCGGCGCCUGCGCCGAUGAAGGUGUAGAGACUAGACGGCACCCACCUAAGGCUAACGCUAUGGUGAAGGCAUAGUCAAGGGAGGGGCGAAAGUCACACAAACCGG [C82A A145U C169A U176G], the reverse-splicing fitness amounted to 0.00484.
In the case of GUGCCUUGCGCCGGGAAACCACGCAAGGGAUGGUGUCAAAUUCGGCGAAACCUAAGCGCCCGCCCGGGCGUAUGGCAACGCAGAGCCAAGCUUCGGCGCCUGCGCCGAUGAAGGUGUAGAGACUAGACGGCACCCACCUAAGGCUAACGUUAUGGUGAAGGCAUAGUCCAGGGAGCGGCGAAAGUCACACAAACCGG [C82A A145U C150U U176C], the reverse-splicing fitness was determined as 0.324.
As to GUGCCUUGCGCCGGGAAACCACGCAAGGGAUGGUGUCAAAUUCGGCGAAACCUAAGCGCCCGCCCGGGCGUAUGGCAACGCAGAGCCAAGCUUCGGCGCCUGCGCCGAUGAAGGUGUAGAGACUAGACGGCACCCACCUAAGGCUAACGUUAUGGUGAAGGCAUAGUCCAGGGAGAGGCGAAAGUCACACAAACCGG [C82A A145U C150U U176A], the reverse-splicing fitness worked out at 0.273.
In the case of GUGCCUUGCGCCGGGAAACCACGCAAGGGAUGGUGUCAAAUUCGGCGAAACCUAAGCGCCCGCCCGGGCGUAUGGCAACGCAGAGCCAAGCUUCGGCGCCUGCGCCGAUGAAGGUGUAGAGACUAGACGGCACCCACCUAAGGCUAACGUUAUGGUGAAGGCAUAGUCCAGGGAGGGGCGAAAGUCACACAAACCGG [C82A A145U C150U U176G] it was 0.0823.
With GUGCCUUGCGCCGGGAAACCACGCAAGGGAUGGUGUCAAAUUCGGCGAAACCUAAGCGCCCGCCCGGGCGUAUGGCAACGCAGAGCCAAGCUUCGGCGCCUGCGCCGAUGAAGGUGUAGAGACUAGACGGCACCCACCUAAGGCUAACGCUAUGGUGAAGGCAUAGUCCAGGGAGAGGCGAAAGUCACACAAACCGG [C82A A145U U176A], the reverse-splicing fitness turned out to be 0.386.
For the variant GUGCCUUGCGCCGGGAAACCACGCAAGGGAUGGUGUCAAAUUCGGCGAAACCUAAGCGCCCGCCCGGGCGUAUGGCAACGCAGAGCCAAGCUUCGGCGCCUGCGCCGAUGAAGGUGUAGAGACUAGACGGCACCCACCUAAGGCUAACGCUAUGGUGAAGGCAUAGUCCAGGGAGCGGCGAAAGUCACACAAACCGG [C82A A145U U176C], the reverse-splicing fitness is 0.482.
GUGCCUUGCGCCGGGAAACCACGCAAGGGAUGGUGUCAAAUUCGGCGAAACCUAAGCGCCCGCCCGGGCGUAUGGCAACGCAGAGCCAAGCUUCGGCGCCUGCGCCGAUGAAGGUGUAGAGACUAGACGGCACCCACCUAAGGCUAACGUUAUGGUGAAGGCAUAGUCUAGGGAGAGGCGAAAGUCACACAAACCGG [C82A A145U C150U C169U U176A]: the reverse-splicing fitness is 0.0118.
Consider GUGCCUUGCGCCGGGAAACCACGCAAGGGAUGGUGUCAAAUUCGGCGAAACCUAAGCGCCCGCCCGGGCGUAUGGCAACGCAGAGCCAAGCUUCGGCGCCUGCGCCGAUGAAGGUGUAGAGACUAGACGGCACCCACCUAAGGCUAACGUUAUGGUGAAGGCAUAGUCUAGGGAGCGGCGAAAGUCACACAAACCGG [C82A A145U C150U C169U U176C], for which the reverse-splicing fitness was determined as 0.0131.
Consider GUGCCUUGCGCCGGGAAACCACGCAAGGGAUGGUGUCAAAUUCGGCGAAACCUAAGCGCCCGCCCGGGCGUAUGGCAACGCAGAGCCAAGCUUCGGCGCCUGCGCCGAUGAAGGUGUAGAGACUAGACGGCACCCACCUAAGGCUAACGUUAUGGUGAAGGCAUAGUCUAGGGAGGGGCGAAAGUCACACAAACCGG [C82A A145U C150U C169U U176G], for which the reverse-splicing fitness stood at 0.00508.
Regarding GUGCCUUGCGCCGGGAAACCACGCAAGGGAUGGUGUCAAAUUCGGCGAAACCUAAGCGCCCGCCCGGGCGUAUGGCAACGCAGAGCCAAGCUUCGGCGCCUGCGCCGAUGAAGGUGUAGAGACUAGACGGCACCCACCUAAGGCUAACGCUAUGGUGAAGGCAUAGUCGAGGGAGUGGCGAAAGUCACACAAACCGG [C82A A145U C169G], the reverse-splicing fitness came out at 0.00976.
GUGCCUUGCGCCGGGAAACCACGCAAGGGAUGGUGUCAAAUUCGGCGAAACCUAAGCGCCCGCCCGGGCGUAUGGCAACGCAGAGCCAAGCUUCGGCGCCUGCGCCGAUGAAGGUGUAGAGACUAGACGGCACCCACCUAAGGCUAACGCUAUGGUGAAGGCAUAGUCUAGGGAGUGGCGAAAGUCACACAAACCGG [C82A A145U C169U]: the reverse-splicing fitness is 0.0136.
With GUGCCUUGCGCCGGGAAACCACGCAAGGGAUGGUGUCAAAUUCGGCGAAACCUAAGCGCCCGCCCGGGCGUAUGGCAACGCAGAGCCAAGCUUCGGCGCCUGCGCCGAUGAAGGUGUAGAGACUAGACGGCACCCACCUAAGGCUAACGCUAUGGUGAAGGCAUAGUCAAGGGAGUGGCGAAAGUCACACAAACCGG [C82A A145U C169A] the figure was 0.0085; with GUGCCUUGCGCCGGGAAACCACGCAAGGGAUGGUGUCAAAUUCGGCGAAACCUAAGCGCCCGCCCGGGCGUAUGGCAACGCAGAGCCAAGCUUCGGCGCCUGCGCCGAUGAAGGUGUAGAGACUAGACGGCACCCACCUAAGGCUAACGUUAUGGUGAAGGCAUAGUCGAGGGAGAGGCGAAAGUCACACAAACCGG [C82A A145U C150U C169G U176A], 0.0124.

The values are drawn from the RNAGym collection of RNA variant scans (doi:10.1093/molbev/msab373).
